# Measured values: PMC7312664, “Beneficial Effects of Inflammatory Cytokine-Targeting Aptamers in an Animal Model of Chronic Prostatitis”
# Molecular target: IL-1b (human) (human, UniProt P01584 117-269)
# Test: plate binding assay / ELISA with aptamer replacing primary antibody; dose-dependent; protein fixed in plate, n = 3; buffer, salt, pH and temperature not given in the material
# Sequence of IL-1b (human) (P01584 117-269): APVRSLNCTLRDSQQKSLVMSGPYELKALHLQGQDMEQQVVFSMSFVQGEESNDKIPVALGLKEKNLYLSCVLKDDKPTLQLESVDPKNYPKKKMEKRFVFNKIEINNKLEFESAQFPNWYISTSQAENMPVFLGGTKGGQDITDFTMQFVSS
binder,measurement,value
GAAGTATAGCGCAATAAACTCACCTCCCAC (ssDNA) [AptIL-1b],binding result,binds
